Values quoted from earlier work, collected in paper PMC3648593.

Biological target: Met (Homo sapiens) (UniProt P08581)
Sequence of UniProt P08581 (P08581 25-932): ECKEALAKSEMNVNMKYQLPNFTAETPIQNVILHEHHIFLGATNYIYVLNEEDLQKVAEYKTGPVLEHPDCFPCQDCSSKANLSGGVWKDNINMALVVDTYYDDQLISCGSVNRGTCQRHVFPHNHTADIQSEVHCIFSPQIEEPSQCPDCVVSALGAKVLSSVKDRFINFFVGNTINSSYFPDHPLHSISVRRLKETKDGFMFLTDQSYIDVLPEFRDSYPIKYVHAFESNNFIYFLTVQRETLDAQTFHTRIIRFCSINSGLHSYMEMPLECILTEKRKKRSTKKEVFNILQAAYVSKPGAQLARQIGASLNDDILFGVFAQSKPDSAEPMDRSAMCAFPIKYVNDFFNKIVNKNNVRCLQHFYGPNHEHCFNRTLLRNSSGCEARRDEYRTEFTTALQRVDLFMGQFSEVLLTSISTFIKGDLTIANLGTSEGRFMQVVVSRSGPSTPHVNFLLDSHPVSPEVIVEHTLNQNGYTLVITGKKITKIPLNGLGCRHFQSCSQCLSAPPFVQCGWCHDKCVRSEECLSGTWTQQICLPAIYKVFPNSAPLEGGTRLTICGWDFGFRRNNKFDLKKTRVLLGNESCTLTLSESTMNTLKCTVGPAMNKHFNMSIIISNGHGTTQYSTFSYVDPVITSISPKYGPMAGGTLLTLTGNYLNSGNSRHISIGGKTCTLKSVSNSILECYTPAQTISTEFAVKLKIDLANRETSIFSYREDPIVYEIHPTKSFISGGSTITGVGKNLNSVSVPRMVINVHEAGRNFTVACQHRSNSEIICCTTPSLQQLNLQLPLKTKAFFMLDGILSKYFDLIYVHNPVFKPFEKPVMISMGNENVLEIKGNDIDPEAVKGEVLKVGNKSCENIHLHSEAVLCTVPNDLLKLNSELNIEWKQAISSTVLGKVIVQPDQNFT

Substance: Decorin (from UniProt P07585)
- Kd: 2 nM
